Laboratory results as given in patent publication CN114617961A (BEIJING ORIENTAL BAITAI BIOTECHNOLOGY CO LTD; BEIJING …, dated 2022).

T1: LAG-3 (human, UniProt P18627 23-450, limits assumed)
T1 sequence (looked up): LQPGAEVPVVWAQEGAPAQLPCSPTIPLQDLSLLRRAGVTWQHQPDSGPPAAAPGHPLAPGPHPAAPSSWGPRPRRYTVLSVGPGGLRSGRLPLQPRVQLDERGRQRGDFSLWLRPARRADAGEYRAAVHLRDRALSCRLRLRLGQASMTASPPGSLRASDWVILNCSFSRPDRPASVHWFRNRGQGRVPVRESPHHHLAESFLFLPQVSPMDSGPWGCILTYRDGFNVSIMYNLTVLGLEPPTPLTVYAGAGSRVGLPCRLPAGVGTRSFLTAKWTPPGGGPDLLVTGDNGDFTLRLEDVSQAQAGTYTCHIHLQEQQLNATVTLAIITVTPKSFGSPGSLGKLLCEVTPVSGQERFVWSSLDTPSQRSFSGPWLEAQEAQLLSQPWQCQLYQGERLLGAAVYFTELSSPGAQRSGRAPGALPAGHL


Target: T1, LAG-3
Assay: cell-based or functional assay

Binder | EC50 of IL-2 secretion in mixed lymphocyte reaction (CD4+ T cells + DC, 5 days)
MA-1 鼠源抗体 (mouse IgG1 / mouse Ck) (antibody) heavy: EVQLQQSGAELVKPGASVKLSCTASGFNIKDTYMHWVKQRPEQGLEWIGKIDPANGNTKYDPKFQGKATITADTSSNTAYLQLSRLTSEDTAVYYCARDTTVGLDYWGQGTTLTVSSAKTTPPSVYPLAPGSAAQTNSMVTLGCLVKGYFPEPVTVTWNSGSLSSGVHTFPAVLQSDLYTLSSSVTVPSSTWPSETVTCNVAHPASSTKVDKKIVPRDCGCKPCICTVPEVSSVFIFPPKPKDVLTITLTPKVTCVVVDISKDDPEVQFSWFVDDVEVHTAQTQPREEQFNSTFRSVSELPIMHQDWLNGKEFKCRVNSAAFPAPIEKTISKTKGRPKAPQVYTIPPPKEQMAKDKVSLTCMITDFFPEDITVEWQWNGQPAENYKNTQPIMDTDGSYFVYSKLNVQKSNWEAGNTFTCSVLHEGLHNHHTEKSLSHSPG light: DIVITQSTAIMSASLGEKVTMSCRASSSVNYMYWYQQKSDASPKLWIYYTSKLASGVPARFSGSGSGTSYSLTISSMEAEDAATYYCQQWSSNPHTFGGGTKLEIKADAAPTVSIFPPSSEQLTSGGASVVCFLNNFYPKDINVKWKIDGSERQNGVLNSWTDQDSKDSTYSMSSTLTLTKDEYERHNSYTCEATHKTSTSPIVKSFNRNEC | 0.024 µg/mL
MA-2 鼠源抗体 (mouse IgG1 / mouse Ck) (antibody, V domains shown) VH: EVQLQQSGAELVKPGASVKLSCTASGFNIKDTYMHWVKQRPEQGLEWIGKIDPANGNTKYDPKFQGKATITADTSSNTAYLQLSRLTSEDTAVYYCARDTTVGLDYWGQGTTLTVSS VL: DIVLTQTPAIMSASLGEKVTMSCRASSSVNYMYWYQQKSDASPKLWIYYTSNLAPGVPARFSGSGSGNSYSLTISSMEGEDAATYYCQQFTSSPSMTFGGGTKLEIKA | 0.03 µg/mL
MA-3 鼠源抗体 (mouse IgG1 / mouse Ck) (antibody, V domains shown) VH: EVKLEESGPELVKPGASVKISCKASGYSFTSYYIHWVKQRPGQGLEWIGWIFPGTGNTRYNEKFKGKATLTADTSSSTVYMQLSGLTSEDSAVYFCARIGGRLTGDAMDYWGQGTSVTVSS VL: DIVLTQSTASLAVSLGQRATISCRASESVDSYGNSFMHWYQQKPGQPPKLLIYLASNLESGVPARFSGSGSRTDFTLTIDPVEADDAATYYCQQNNEDPWTFGGGTKLEIKA | 0.076 µg/mL
MA-4 鼠源抗体 (mouse IgG1 / mouse Ck) (antibody, V domains shown) VH: QVKLEESGPGLVQPSQSLSITCTVSAFSLTTYAVHWVRQSPGKGLEWLGVIWSGGSTDYNTAFISRLNITKDNSKSQVFFKMNSLQANDTAIYYCARLDGTFFDYWGQGTTLTVSS VL: DIVLTQTPAIMSASLGERVTMTCTASSSVSSSYLHWYQQKPGSSPKLWIYSTSNLASGVPARFSGSGSGTSYSLTISSMEAEDAATYYCHQYHRSPPTFGGGTKLEIKA | 0.121 µg/mL

Target: T1, LAG-3
Assay: cell-based or functional assay
Remark: another data set of the same source

Binder | EC50 of T cell proliferation (CCK8) in mixed lymphocyte reaction
嵌合抗体CA-1 (antibody, human IgG4 S228P, kappa) heavy: not shown light: DIVITQSTAIMSASLGEKVTMSCRASSSVNYMYWYQQKSDASPKLWIYYTSKLASGVPARFSGSGSGTSYSLTISSMEAEDAATYYCQQWSSNPHTFGGGTKLEIKRTVAAPSVFIFPPSDEQLKSGTASVVCLLNNFYPREAKVQWKVDNALQSGNSQESVTEQDSKDSTYSLSSTLTLSKADYEKHKVYACEVTHQGLSSPVTKSFNRGEC | 0.00723 µg/mL
人源化抗体HA-4 (human IgG4 / human Ck) (antibody, V domains shown) VH: QVQLVQSGAEVKKPGASVKVSCKASGYNITDTYMHWVRQAPGQGLEWIGKIDPANGNTKYDPKFQGRATITADTSISTAYMELSRLRSDDTAVYYCARDTTVGLDYWGQGTLVTVSS VL: DIVITQSPAFLSVTPGEKVTITCRASSSVNYMYWYQQKPDASPKLWIYYTSKLASGVPSRFSGSGSGTDYTFTISSLEAEDAATYYCQQWSSNPHTFGGGTKVEIKR | 0.0338 µg/mL
人源化抗体HA-1 (human IgG4 / human Ck) (antibody, V domains shown) VH: QVQLVQSGAEVKKPGASVKVSCKASGYTFTDTYMHWVRQAPGQGLEWIGKIDPANGNTKYDPKFQGRATITADTSISTAYMELSRLRSDDTAVYYCARDTTVGLDYWGQGTLVTVSS VL: DIVITQSPAFLSVTPGEKVTITCRASSSVNYMYWYQQKPDASPKLWIYYTSKLASGVPSRFSGSGSGTDYTFTISSLEAEDAATYYCQQWSSNPHTFGGGTKVEIKR | 0.00688 µg/mL
人源化抗体HA-2 (human IgG4 / human Ck) (antibody, V domains shown) VH: QVQLVQSGAEVKKPGASVKVSCKASGYTFTDTYMHWVRQAPGQGLEWIGKIDPANGNTKYDPKFQGRATITADTSISTAYMELSRLRSDDTAVYYCARDTTVGLDYWGQGTLVTVSS VL: DIVITQSPAFLSVTPGEKVTITCRASSSVNYMYWYQQKPDQAPKLLIYYTSKLASGVPSRFSGSGSGTDYTFTISSLEAEDAATYYCQQWSSNPHTFGGGTKVEIKR | 0.0271 µg/mL
人源化抗体HA-3 (human IgG4 / human Ck) (antibody, V domains shown) VH: QVQLVQSGAEVKKPGASVKVSCKASGYNITDTYMHWVRQAPGQGLEWIGKIDPANGNTKYDPKFQGRATITADTSISTAYMELSRLRSDDTAVYYCARDTTVGLDYWGQGTLVTVSS VL: DIVITQSPAFLSVTPGEKVTITCRASSSVNYMYWYQQKPDQAPKLLIYYTSKLASGVPSRFSGSGSGTDYTFTISSLEAEDAATYYCQQWSSNPHTFGGGTKVEIKR | 0.015 µg/mL
人源化抗体HA-5 (human IgG4 / human Ck) (antibody, V domains shown) VH: QVQLVQSGAEVKKPGASVKVSCKASGYNIKDTYMHWVKQAPGQGLEWIGKIDPANGNTKYDPKFQGKATITADTSISTAYMELSRLRSDDTAVYYCARDTTVGLDYWGQGTLVTVSS VL: DIVITQSPAFLSVTPGEKVTITCRASSSVNYMYWYQQKPDASPKLWIYYTSKLASGVPARFSGSGSGTSYTFTISSLEAEDAATYYCQQWSSNPHTFGGGTKVEIKR | 0.0318 µg/mL
